Reference: paper PMC11574021, “CEP192 localises mitotic Aurora-A activity by priming its interaction with TPX2” (The EMBO Journal, 2024)

Columns and labels:
Aurora-A KD F165D/R205A = experiment: ITC, CEP192 with Aurora-A KD F165D/R205A; assay type: binding, human; conditions: 25 °C, pH 7.5
Description: (§1) Thermodynamic information was established using the ITC200 microcalorimeter (MicroCal, Northampton, MA). Proteins were dialysed overnight into 20 mM tris pH 7.5, 200 mM NaCl, 10% glycerol, 5 mM magnesium chloride (CEP192 constructs/mutants and Aurora-A 122–403 mutants). Experiments were carried out at 25 °C. The syringe contained 70 μl of 250 μM Aurora-A 122–403 (D274N C290A C393A or mutant). About 2 μl injections were applied every 180 s. The cell contained 205 μl of 25 μM CEP192 construct/mutant. Microcal Origin software version 7.0 was used to determine the dissociation constants (Kd). All measurements were repeated at least twice.

[1] = target: T1, phosphorylated Aurora-A CAKD (Homo sapiens, UniProt O14965, C290A/C393A); experiment: ITC, CEP192 with phosphorylated Aurora-A CAKD; assay type: binding; conditions: ratio of Kd, phosphorylated vs unphosphorylated
T1 construct: 10 nM Aurora-A 122–403 C290A C393A phosphorylated protein; His (N, cleaved yes); made in house; host or cells: E. coli B834 (no lambda phosphatase)
T1 sequence (O14965 122-403 C290A/C393A): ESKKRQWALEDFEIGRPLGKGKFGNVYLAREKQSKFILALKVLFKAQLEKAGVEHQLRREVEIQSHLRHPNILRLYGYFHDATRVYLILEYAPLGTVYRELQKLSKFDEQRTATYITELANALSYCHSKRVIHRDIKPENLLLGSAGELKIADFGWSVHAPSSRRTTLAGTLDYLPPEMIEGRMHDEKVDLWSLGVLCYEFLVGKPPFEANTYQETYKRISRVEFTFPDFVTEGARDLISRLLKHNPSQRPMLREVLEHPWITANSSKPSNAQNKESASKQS
Description: as §1

[2] = target: T2, unphosphorylated Aurora-A CAKD (Homo sapiens, UniProt O14965, C290A/C393A); experiment: Fluorescence anisotropy competition with FAM-TPX2 7-43; assay type: binding; conditions: for IC50: competition with 100 nM FAM-TPX2 7-43, 10 μM unphosphorylated Aurora-A CAKD, n = 3 (Appendix Fig. S4E)
T2 construct: 10 μM Aurora-A kinase domain (phosphorylated or unphosphorylated C290A C393A 122–403); His (N, cleaved yes); made in house; host or cells: E. coli RIL, co-expressed with lambda phosphatase
T2 sequence (O14965 122-403 C290A/C393A): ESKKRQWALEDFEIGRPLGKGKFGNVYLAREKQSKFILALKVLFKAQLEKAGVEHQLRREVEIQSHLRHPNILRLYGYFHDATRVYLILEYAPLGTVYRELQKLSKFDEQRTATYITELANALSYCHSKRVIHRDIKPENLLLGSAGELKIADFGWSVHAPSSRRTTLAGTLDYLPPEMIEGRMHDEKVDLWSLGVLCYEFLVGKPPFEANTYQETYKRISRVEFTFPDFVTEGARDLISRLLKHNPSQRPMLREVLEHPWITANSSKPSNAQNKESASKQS
Description: (§2) Assays were performed in 25 mM HEPES pH 7.5, 150 mM NaCl, 2 mM DTT, 5 mM MgCl2, 0.01% Tween 20. For CEP192 and TPX2 competition assays 10 μM Aurora-A kinase domain (phosphorylated or unphosphorylated C290A C393A 122–403) was preincubated on ice with 100 nM FAM-TPX2 7-43 or 100 nM FAM-CEP192 501–533. For TACC3 competition, due to weaker binding, 25 μM Aurora-A kinase domain (phosphorylated or unphosphorylated C290A C393A 122–403) was preincubated with 100 nM FAM-TACC3 522-536. Serial dilutions of competitor (CEP192) were performed in triplicate into a low volume 384-well black plate, before the premixed Aurora-A and tracer were added. A control row included no tracer. Plates were left incubating for 1 h at room temperature before the fluorescence anisotropy was measured using a HIDEX plate reader, with excitation at 485 nm and emission at 535 nm. For direct binding experiments, the assay was performed as above, but the Aurora-A (122–403 C290A C393A or point mutants) was diluted across the plate from high to low concentration, before the addition of 50 nM tracer (FAM-CEP192 501–533) to three replicate rows. Buffer only was added to the control row.
(§3) Fluorescence anisotropy data were processed using Microsoft Excel to calculate intensity and anisotropy using the equation listed in (Yeo et al, [2013]). The IC50 and Kd values were calculated using Origin (OriginLab) where the data fitted to a sigmoid and are summarised in Appendix Table S3.

Aurora-A CAKD = target: T3, Aurora-A CAKD (Homo sapiens, UniProt O14965, C290A/C393A); experiment: Fluorescence anisotropy competition with FAM-TACC3 522-536; assay type: binding; conditions: in words
T3 construct: 25 μM Aurora-A kinase domain (phosphorylated or unphosphorylated C290A C393A 122–403); His (N, cleaved yes); made in house; host or cells: E. coli
T3 sequence (O14965 122-403 C290A/C393A): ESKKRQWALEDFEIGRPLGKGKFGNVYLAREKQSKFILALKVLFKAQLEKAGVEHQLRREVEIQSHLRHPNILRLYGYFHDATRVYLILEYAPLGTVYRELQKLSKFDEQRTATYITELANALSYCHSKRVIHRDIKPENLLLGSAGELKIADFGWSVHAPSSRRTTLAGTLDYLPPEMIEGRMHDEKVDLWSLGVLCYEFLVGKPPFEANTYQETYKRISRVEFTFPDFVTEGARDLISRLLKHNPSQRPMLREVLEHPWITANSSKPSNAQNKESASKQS
Description: as §2, with “For direct binding experiments, the assay was performed as above, but the Aurora-A (122–403 C290A C393A or point mutants) was diluted across the plate from high to low concentration, before the addition of 50 nM tracer (FAM-CEP192 501–533) to three replicate rows. Buffer only was added to the control row.” left out
as §3

[3] = target: T2, unphosphorylated Aurora-A CAKD; experiment: Fluorescence anisotropy competition with FAM-CEP192 501-533, unphosphorylated Aurora-A; assay type: binding
Description: as §2, §3

[4] = target: T1, phosphorylated Aurora-A CAKD; experiment: Fluorescence anisotropy competition with FAM-CEP192 501-533, phosphorylated Aurora-A; assay type: binding; conditions: competition with 100 nM FAM-CEP192 501-533, 10 μM phosphorylated Aurora-A CAKD, n = 3
Description: as §2, §3

[5] = target: T1, phosphorylated Aurora-A CAKD; experiment: ADP-Glo kinase assay, kemptide substrate; assay type: biochemical; conditions: ADP-Glo, phosphorylated Aurora-A CAKD, kemptide; in words
Description: Reactions were initiated by the addition of 10 μM ATP and 100 μM kemptide as substrate (Cambridge Bioscience Ltd). The reactions were incubated at room temperature for 60 min before 5 μl was transferred into 5 ul of ADP-Glo Reagent (Promega) in a 384-well low volume low binding plate (Greiner Bio-one). After a further 40 min at room temperature, 10 μl of kinase detection reagent was added to each well, and the reaction was allowed to incubate for an additional 30 min. Luminescence was measured on a HIDEX Sense plate reader (HIDEX) using a 1 s integration time. Control data was subtracted from the luminescence and three repeats were averaged before being fitted to a sigmoidal plot using Origin (OriginLab), where IC50 and EC50 values were calculated.

- Kd (Aurora-A KD F165D/R205A): 26 ± 16 µM
- difference in affinity compared to unphosphorylated Aurora-A [1]: around a twofold difference in affinity
- IC50 [2]: 3.24 µM
- IC50 ([2]; listed as WT CEP192): ~4 µM
- competition for binding with FAM-TPX2 7-43 ([2]; in words, Aurora-A CAKD): competed for binding with FAM-TPX2_7-43
- IC50 ([3]; competition with 100 nM FAM-CEP192 501-533, 10 μM unphosphorylated Aurora-A CAKD, n = 3): 1.42 µM
- ability to compete for binding, phosphorylated vs unphosphorylated Aurora-A ([3]; competition with FAM-CEP192 501-533, in words): No significant difference
- IC50 [4]: 0.63 µM
B1: CEP192 468-533: recombinant human CEP192 aa 468–533, minimal binding region (protein)
chain: PQSVVYQNEEGRWVTDLAYYTSFNSKQNLNVSLSDEMNEDFRSGSEAFDLIAQDEEEFNKEHQFIQ
modifications: left off: His6, N-terminal, cleaved | SUMO, N-terminal, cleaved
- competition for binding with FAM-TACC3 522-536 (Aurora-A CAKD): competed for binding with FAM-TACC3_522-536
- effect on Aurora-A kinase activity [5]: partially inhibited the activity
